The supplement of paper PMC7125110
± gives the standard error. For part of these data: Variants at the floor of the assay were thinned out.

B1: glmS ribozyme (parent)
chain: AUAAAAGCGCCAGAACUACAGAAAUGUAGUUGACGAGGAGGAGGUUUAUCGAAUUUUCGGCGGAUGCCUCCAAA

Experiments:
Details in all cases: with glucosamine-6-phosphate
glucosamine-6-phosphate [1] = variants of: B1; assay: kcat; higher = faster cleavage; RNA array
Outline: (§1)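 kcat and KM were obtained from weighted Michaelis–Menten fits across concentrations of kobs values. Those came from one- or two-exponential decay fits to per-tile medians normalised to baseline and to non-cleaving reference variants. The variants were barcoded ribozymes transcribed in situ by E. coli RNA polymerase on sequenced MiSeq chips and tracked through a hybridised Cy3 probe at 37 °C, with 40 μM to 10 mM glucosamine-6-phosphate in HEPES/KCl/Mg(OAc)2 buffer flowed in.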

glucosamine-6-phosphate [2] = variants of: B1; assay: self-cleavage kobs at 40 uM GlcN6P; higher = faster cleavage; RNA array
Outline: as §1

glucosamine-6-phosphate [3] = variants of: B1; assay: self-cleavage kobs at 160 uM GlcN6P; higher = faster cleavage; RNA array
Outline: as §1

glucosamine-6-phosphate [4] = variants of: B1; assay: self-cleavage kobs at 640 uM GlcN6P; higher = faster cleavage; RNA array
Outline: as §1

glucosamine-6-phosphate [5] = variants of: B1; assay: KM; higher = weaker cofactor use; RNA array
Outline: as §1

glucosamine-6-phosphate [6] = variants of: B1; assay: self-cleavage kobs at 2500 uM GlcN6P; higher = faster cleavage; RNA array
Outline: as §1

glucosamine-6-phosphate [7] = variants of: B1; assay: self-cleavage kobs at 10000 uM GlcN6P; higher = faster cleavage; RNA array
Outline: as §1

| Variant | kcat (glucosamine-6-phosphate [1]) [s⁻¹] | self-cleavage kobs at 40 uM GlcN6P (glucosamine-6-phosphate [2]) [s⁻¹] | self-cleavage kobs at 160 uM GlcN6P (glucosamine-6-phosphate [3]) [s⁻¹] | self-cleavage kobs at 640 uM GlcN6P (glucosamine-6-phosphate [4]) [s⁻¹] | KM (glucosamine-6-phosphate [5]) [mM] | self-cleavage kobs at 2500 uM GlcN6P (glucosamine-6-phosphate [6]) [s⁻¹] | self-cleavage kobs at 10000 uM GlcN6P (glucosamine-6-phosphate [7]) [s⁻¹] |
| --- | --- | --- | --- | --- | --- | --- | --- |
| A15C G43A | < 1e-05 | < 1e-05 | < 1e-05 | < 1e-05 | – | – | – |
| A15C C61U | < 1e-05 | < 1e-05 | < 1e-05 | < 1e-05 | – | – | – |
| A15C C16U | 0.00405 ± 0.00069 | 4.37e-05 ± 7.4e-06 | 0.000159 ± 4.5e-05 | 0.000777 ± 0.0001 | 3.22 ± 0.83 | 0.00235 ± 0.00038 | 0.0029 ± 0.0003 |
| G32A U47G | 0.00115 ± 0.0003 | – | 5.19e-05 ± 1.5e-05 | 0.000142 ± 3e-05 | 3.78 ± 1.6 | 0.000687 ± 0.00015 | 0.000806 ± 0.00013 |
| C61A G66U | < 1e-05 | – | – | – | – | – | – |
| U57G C61G C70U | 2.66e-05 ± 9e-06 | – | – | 3.58e-05 ± 1.7e-05 | – | – | – |
| A48U C70A | 1.64e-05 ± 7.1e-06 | – | – | – | – | 3.28e-05 ± 1.6e-05 | – |
| U30C C71A | 9.39e-05 ± 4.7e-06 | – | – | 3.17e-05 ± 8.4e-06 | 1.3 ± 0.18 | 6.1e-05 ± 9.3e-06 | 8.36e-05 ± 1.3e-05 |
| A12U C67U C70G | 2.06e-05 ± 6.6e-06 | – | – | – | – | – | – |
| C10A A14U G59U C71G | 1.42e-05 ± 3.8e-06 | – | – | – | – | – | – |
| U45C U46G | 0.00122 ± 0.00043 | – | 7.78e-05 ± 1.5e-05 | 0.000322 ± 8.8e-05 | 2.11 ± 1.1 | 0.000911 ± 0.00015 | 0.000685 ± 0.00025 |
| A12C U56G | 0.0146 ± 0.003 | 0.000162 ± 2.5e-05 | 0.000652 ± 0.00018 | 0.00336 ± 0.00068 | 3.36 ± 0.91 | 0.0054 ± 0.0014 | 0.0111 ± 0.0018 |
| U30A G41A | 0.000441 ± 3.4e-05 | – | – | 3.92e-05 ± 1.2e-05 | 6.39 ± 0.73 | 0.000127 ± 2.3e-05 | 0.000265 ± 5.7e-05 |
| A15C A53G | 0.0101 ± 0.0037 | 0.000195 ± 2e-05 | 0.000515 ± 8.7e-05 | 0.00139 ± 0.00015 | 3.06 ± 1.5 | 0.00454 ± 0.00066 | 0.00839 ± 0.00094 |
| A39C C58A | 0.000217 ± 9.9e-05 | < 1e-05 | – | – | – | – | 5.19e-05 ± 9.6e-06 |
| G37U G38C | < 1e-05 | < 1e-05 | < 1e-05 | – | – | < 1e-05 | – |
| A15C U55A | 0.00649 ± 0.0016 | 0.000161 ± 2.8e-05 | 0.000516 ± 8.7e-05 | 0.00128 ± 0.00023 | 1.92 ± 0.65 | 0.00484 ± 0.00095 | 0.0054 ± 0.00095 |

| Variant | kcat (glucosamine-6-phosphate [1]) [s⁻¹] | self-cleavage kobs at 40 uM GlcN6P (glucosamine-6-phosphate [2]) [s⁻¹] | self-cleavage kobs at 160 uM GlcN6P (glucosamine-6-phosphate [3]) [s⁻¹] | self-cleavage kobs at 640 uM GlcN6P (glucosamine-6-phosphate [4]) [s⁻¹] | KM (glucosamine-6-phosphate [5]) [mM] | self-cleavage kobs at 2500 uM GlcN6P (glucosamine-6-phosphate [6]) [s⁻¹] | self-cleavage kobs at 10000 uM GlcN6P (glucosamine-6-phosphate [7]) [s⁻¹] |
| --- | --- | --- | --- | --- | --- | --- | --- |
| G13A G40C | 5.83e-05 ± 8.4e-06 | < 1e-05 | – | – | 2.94 ± 1.1 | 2.55e-05 ± 7.4e-06 | 4.56e-05 ± 9.9e-06 |
| G13C A14G | 0.00129 ± 0.00022 | – | 4.16e-05 ± 8.8e-06 | 0.000189 ± 2.5e-05 | 3.98 ± 0.95 | 0.000557 ± 7.3e-05 | 0.000855 ± 0.00013 |
| G7U C67U | < 1e-05 | < 1e-05 | < 1e-05 | – | – | < 1e-05 | – |
| A14C C16G A53U | 2.08e-05 ± 7.9e-07 | – | – | – | 1.7 ± 0.26 | – | – |
| A36U C67U | < 1e-05 | – | – | – | – | – | – |
| G60C C70G | 2.59e-05 ± 9.4e-06 | < 1e-05 | – | – | – | – | < 1e-05 |
| A14U C71G | 0.000432 ± 8.9e-05 | 2.7e-05 ± 9.2e-06 | 5.71e-05 ± 1.1e-05 | 0.000111 ± 1.3e-05 | 1.62 ± 0.63 | 0.000237 ± 3.2e-05 | 0.000402 ± 4.2e-05 |
| U56A C70G | 0.000119 ± 1.4e-05 | 4.01e-05 ± 1e-05 | 8.18e-05 ± 1e-05 | 0.000105 ± 1.1e-05 | – | 0.000153 ± 1.5e-05 | 0.0001 ± 1.1e-05 |
| A6G A14C U54G | 3.49e-05 ± 4.1e-06 | – | – | – | – | 3.32e-05 ± 1.2e-05 | 3.47e-05 ± 1.5e-05 |
| C50U U69G C70U | 5.07e-05 ± 2.4e-05 | – | – | 8.65e-05 ± 3.1e-05 | – | – | – |
| G40A G41A | 0.000106 ± 2.5e-05 | – | – | 6.83e-05 ± 1.2e-05 | – | 0.000163 ± 2.3e-05 | 8.89e-05 ± 1e-05 |
| C11U U54A | 0.00189 ± 0.00049 | 8.46e-05 ± 1.3e-05 | 0.000164 ± 3.1e-05 | 0.000876 ± 0.00016 | 1.15 ± 0.47 | 0.00164 ± 0.00021 | 0.00149 ± 0.00021 |
| A33U G59U | < 1e-05 | < 1e-05 | – | < 1e-05 | – | < 1e-05 | – |
| C16A A42C | < 1e-05 | < 1e-05 | < 1e-05 | – | – | < 1e-05 | < 1e-05 |
| G13U G29A | 0.000411 ± 4.9e-05 | – | – | 3.19e-05 ± 1.3e-05 | 6.48 ± 1.3 | 0.000121 ± 2.2e-05 | 0.000246 ± 4.2e-05 |
| A14U U30G | 0.00494 ± 0.00089 | 0.000104 ± 8.8e-06 | 0.000282 ± 3.6e-05 | 0.000998 ± 0.0001 | 2.22 ± 0.54 | 0.0033 ± 0.00052 | 0.00404 ± 0.00036 |
| A12C G37C | 8.54e-05 ± 2.4e-06 | – | – | – | 6.97 ± 0.42 | 2.27e-05 ± 8.6e-06 | 5.03e-05 ± 7.5e-06 |
